Experimental findings from the nanobody polyreactivity screen of Harvey et al. (2022) are described below.

This data set is described as follows: yeast display, Sf9 membrane polyspecificity reagent, FACS + sequencing; frameworks hold sequencing errors. In outline: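 Galactose-induced (36–48 hours) yeast carrying a synthetic nanobody display library were exposed to 10% biotinylated, detergent-solubilized Sf9 membrane reagent at 4 °C for 1 hour. FACS followed streptavidin microbead enrichment, using low and high (top ~1%) gates for expression (anti-HA) and reagent binding (streptavidin). Colony PCR, MiSeq 2 × 250 sequencing and CDR-length filtering followed. Labels for polyreactivity reflect the gate of origin.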
“QVQLVESGGGLVQAGGSLRLSCAASGRTFVYYAMGWYRQAPGKERELVATISRRGGGTYYADSVKGRFTISRDNEKNTVYLQMNSLKPEDTAVYYCAAAFSYYPRYDYWGQGTQVTVSS”: the “polyreactivity (PSR sort gate)” value is “high polyreactivity”.

Consider “QVQLVESGGGLVQAGGSLRLSCAASGRTFYGNAMGWYRQAPGKERELVAAISWSGGGTYYADSVKGRFTISRDNAKNTVYLQMNSLKPEDTAVYYCAAQFGRKGSGVWTRPENYWGQGTQVTVSS”, for which the “polyreactivity (PSR sort gate)” value is “high polyreactivity”.

On to “QVQLVESGGGLVQAGGSLRLSCAASGSIFAKYPMGWYRQAPGKERELVAAISSGGSTYYADSVKGRFTISRDNAKNTVYLQMNSLKPEDTAVYYCNKPYGKETRYTFNVWYEYNYWGQGTQVTVSS”, for which the “polyreactivity (PSR sort gate)” value is listed as “low polyreactivity”.

As to “QVQLVESGGGLVQAGGSLRLSCAASGNTFIRYAMGWYRQAPGKEREFVATITKRGGSTYYADSVKGRFTISRDNAKNTVYLQMNSLKPEDTAVYYCARGPSGTPNGNTPYGDNRYNSWGQGTQVTVSS”, the “polyreactivity (PSR sort gate)” value was “low polyreactivity”.

“QVQLVESGGGLVQAGGSLRLSCAASGFIFVANAMGWYRQAPGKEREFFAAISSSGGRTYYADSVKGRFTISRDNAKNTVYLQMNSLKPEDTAVYYCAKDRVFSRRGFGYWGQGTQVTVSS”: the “polyreactivity (PSR sort gate)” value is listed as “low polyreactivity”.

In the case of “QVQLVESGGGLVQAGGSLRLSCAASGRTFYSNAMGWYRQAPGKERELVAAIRRSRGRTYYADSVKGRFTISRDIAKNTVYLQMNSLKPEDTAVYYCATARYRAEMGYWGQGTQVTVSS”, the “polyreactivity (PSR sort gate)” value was “high polyreactivity”.

Turning to “QVQLVESGGGLVQAGGSLRLSCAASGSTFTYYAMGWYRQAPGKERELVASITTSGGDTNYADSVKGRFTISRDNAKNTVYLQMNSLKPEDTAVYYCAADLYDPYHVYGYNYWGQGTQVTVSS”, the “polyreactivity (PSR sort gate)” value is reported as “low polyreactivity”.

Consider “QVQLVESGGGLVQAGGSLRLSCAASGSIFSDYAMGWYRQAPGKERELVAAITQSGVSTYADSVKGRFTISRDNAKNTVYLQMNSLKPEDTAVYYCAADEVPGFGYPPYPWFDYWGQGTQVTVSS”, for which the “polyreactivity (PSR sort gate)” value is “low polyreactivity”.

Turning to “QVQLVESGGGLVQAGGSLRLSCAASGFIFWYYGMGWYRPAPGKERELVATITSGGSTTYADSVKGRFTISRDNAKNTVYLQMNSLKPEDTAVYYCAADLFYGYYSQADFEYWGQGTQVTVSS”, the “polyreactivity (PSR sort gate)” value is “high polyreactivity”.

Regarding “QLQLVESGGGLVQAGGSLRLSSAPSGITLQYYAMGWYRQAPGKERELVAAISYRGGRTYYADSVKGRFTISRDNAKNTVYLQMNSLKPEDTAGYYCARRSSKPSSIQYYYWGQGTQVTVSS”, the “polyreactivity (PSR sort gate)” value is “high polyreactivity”.

In the case of “QVQLVESGVGLVQAGGSLRLSCAAAGYIFFFYAMGWYRQAPGKERELVASITYRGGSTYYADSVKGRFTISRDNAKNTVYLHMNSLKPEDTAVYYCNVDGGGPLGPQGFPFDYWGQGTQVTVSS”, the “polyreactivity (PSR sort gate)” value was “low polyreactivity”.

In the case of “QVQLVESGGGLVQAGGSLRLSCAASGLTFCRYVMGWYRQAPVKERELVAAITSGDSTNYADSVKGRFTISRDNAKNTVYLQTYSLITEVTAGYYCAADYWYRYYIGRNPWECITFDYWGQGTQVTVSS”, the “polyreactivity (PSR sort gate)” value is given as “low polyreactivity”.

Regarding “QVQLVESGGGLFQAVGSLRLSCAASGSTFIPNAMGWYRQAPGKERELVADISYSGGTTYYADSVKGRFTISRDNAKKTVYLQMNSLKPEDTSVYYCAAVYYTSFYSWPPYDYWGQGTQVTVSS”, the “polyreactivity (PSR sort gate)” value is “low polyreactivity”.

For the sequence “QVQLVESGGGLVQAGGSLRLSCAASGIIFATYAMGWYRQAPGKERELVASISTGDSTNYADSVKGRFTISRDNAKTTVYLQMNSLKPEDTAVYYCNADSYPYYVYGSNDYWGQGTQVTVSS”, the “polyreactivity (PSR sort gate)” value was “low polyreactivity”.

Turning to “QVQLVESGGGLVQAGGSLRLSCAASGFTFHNYAMGWYRQAPGKEREFVAAITRNTASTYYADSVKGRFTISRDNAKTTVYLQMISLKPEATAVYYCAATDKKHRTAYDSWGQRTQVTVSS”, the “polyreactivity (PSR sort gate)” value was “low polyreactivity”.

For the sequence “QVQLVESGGGLVQAGGSLRLSCAASGSTFNAYAMGWYRQAPGKERELVAAISSSGGRTHYADSVKGRFTISRDNAKNTVYLQMNSLKPEDTAVFYCNVGKRFVRNDYWGQGTQVTVSS”, the “polyreactivity (PSR sort gate)” value is reported as “high polyreactivity”.

Regarding “RVQLVESGGGLVQAGGSLRLSCAASGFTFRDYAMGWYRQAPGKERELVARIRIRDSNTYYADSVKGRFTISRDNAKNTVYLQMNSLKPEDTAVYYCAVVANYVYSKYDYWGQGTQVTVSS”, the “polyreactivity (PSR sort gate)” value is on record as “low polyreactivity”.

As to “QVQLVESGGGLVQAGGSLRLSCAASGFTFWAYAMGWYRHAPGKEMEVVAAISKTGGRTYYADSVKGRFTISRDNAKNNDYLQINSLKPEDTAVYYCAVDITGLYYPVDYWGQGTQVTVSS”, the “polyreactivity (PSR sort gate)” value was “high polyreactivity”.

With “QVQLVESCGGLVQAGGSLRLSCAAYGSIFTFYAMGWYRQAPGKERELVAAISSGGDTYYADSVTGRFTISRDNAKNTVYLQMNSLKPEDTAVYYCAADWRGSYLYGYYYWGQGTQVTASS”, the “polyreactivity (PSR sort gate)” value is listed as “low polyreactivity”.

On to “QVQLVESGGGLVQAGGTLRLSCAASGSIFPYYVMGWYRQAPGKERELVAAISTSDGSTYADSVKGRFTISRDNAKNTVYFQMNSLKPEDTAVYYCAVANVYYEGYDYWGQGTQVTVSS”, for which the “polyreactivity (PSR sort gate)” value is recorded as “low polyreactivity”.

As for “QVQLVESGGGLVQAGGSLRLSCAASGSIFGWNAMGWYRQAPGKERELVAAISSGGSTYYADSVKGRFTISRDNAKNTVYLQMNSMKPEDPAVYYCNAYFQYYDYWGQGTQVTVSS”, the “polyreactivity (PSR sort gate)” value is on record as “low polyreactivity”.

“QVQLVESGAGLVQAGGSLRLSCAASGFTFPVYAMGWNRQAPGKERELVAAISWSGGGTYYADSVKGRFTISRDIAKNTVYLQMNSLNPEDTAVHYCAARWYYYPLMYDYWGQGTQVTVSS”: the “polyreactivity (PSR sort gate)” value was “low polyreactivity”.

“QVQLVESGGGLVHAGGSLRISCAASGSTFEWNAMGWYRQAPGKEREFVAAISKTGDGTYADSVKGRFTISRDNAKNSVYLQMNSLKPEDTAVYYCAAVDGFWVNYWYRIGYDYWGQGTQVTVSS”: the “polyreactivity (PSR sort gate)” value is “low polyreactivity”.

Take “QVQLVESGGGLVQAGGSLRLSGAASGSTFRGYAMGWYRQAPGKERELFAAMTYISDSTYYADSVKGRFTISRDNAKNTVYLQMNSLKPEDTAVYYCNAYYDGDWRYTSQETGDHWGQGTQVTVSS”: the “polyreactivity (PSR sort gate)” value is given as “low polyreactivity”.

In the case of “QVQLVESGVGLVQAGGSLSLSCAASGFTFHDYAMGWYSQAPGKERELVAAIDWSGGRTYYADSVKGRFTISRDNAKNTVYLQMNSLKPEDTAVYYCAAVRYSRLYWYRLDYGGQGTQVTVSS”, the “polyreactivity (PSR sort gate)” value is “low polyreactivity”.

As for “QVQLVESGGGLVQAGGSLRLSCAASGSIFVGYAMGWYRQAPGKERELVASINYSGGTTDYADSVKGRFTISRDNAKNTVYLQMNSLKPEDTAVYYCAKTAVDWSFTKGVDYDYWGQGTQVTVSS”, the “polyreactivity (PSR sort gate)” value is “low polyreactivity”.

Take “QGQLVESGGGLVQAGGSLRLSCAASGSTFVYYARGWYRQAPGKEREMVAAIRYSGASTYYADSVKGRFTISRDNAKNTVYLQMNSLKPEDTAVYYCAAQPTTRRVPRFSSRARHYYWGQGTQVTVSS”: the “polyreactivity (PSR sort gate)” value was “high polyreactivity”.

On to “QVQLVESGGGLVQAGGSLRLSCAASGSTYGGYTMGWYRPAPGKVWELVAAIRLSGVSTYYADSVKGRFTISRDNAKNTVYLQMNSLKPEDTAVYYCAARGWYRYGSVYYIGDYWGQGTQVTVSS”, for which the “polyreactivity (PSR sort gate)” value is recorded as “high polyreactivity”.

As for “QVQLVESGGGLVQPGGSLRLSCAASGRTSEIYTMGWYRPAPGKERELVASINTNSADSVKGRFTISRDNAKNTVYLQMNSLKPEDTAVYYCNADDTIEFNYWGQGTQVTVSS”, the “polyreactivity (PSR sort gate)” value was “low polyreactivity”.

With “QVQLVESGGGLVQAGGSLRLSCAASGIIFAPYAMGWYRHPPGKERELVAAITDSGGSTYYADSVKGRFTISRDNSKNTVYLQMKSLKPEDTAVYYCAVDSNPPDWWAVIYGYWGQGTQVTVSS”, the “polyreactivity (PSR sort gate)” value was “low polyreactivity”.

As to “QVQLVESGGGLVQAGGSLRLSCAASGRTFVIYAMGWYRQAPGKERELVAAISKGGGSTYYADSVKGRFTISRDNAKNTVYLQMNSLKPEDTAVYYCAAGYGTYYQYSRFDYWGQGTQVTVSS”, the “polyreactivity (PSR sort gate)” value was “high polyreactivity”.

On to “QVQLVESGGGLVQAGGSLRLSCAASGSIFYGYAMGWYRQAPGKERELVAAITWIDGSTYYADSVKGRFTISRDNAKNPVFLQLTSLKPEDTAVYYCAAGGYFYSFYYWGQGTQVTVSS”, for which the “polyreactivity (PSR sort gate)” value was “low polyreactivity”.

“QVQLVESGGGLVQAGGSLRLSCAASGSIFTWYAMGWYRQAPGKERELVAAISEDGGSTYYADSVKGRFTISRDNAKNTVYLQMNSLKPEDTAVYYCATPVASVTGYDYWGQGTQVTVSS”: the “polyreactivity (PSR sort gate)” value is reported as “low polyreactivity”.

Turning to “QVQLVESGGGLVQAGGSLRLSCAASGSTFYLYAMGWYRQAPGKERELVASITSGDGSTYYADSVKGRFTISRDNAKNTVYLQMNSLKPEDTAVYYCNAVLEGWFYQYDYWGQGTQVTVSS”, the “polyreactivity (PSR sort gate)” value is “low polyreactivity”.

With “QVQLVESGGGLVQAGGSLRLSCAASGLIFNKNSMGWYRQAPGKERELVASNTTTGARTYYADSVKGRFTISRDNAKNTVYLQMNSLKPEDTAFYYCASVHWGWRSITGGVGYDSWGQGTQVTVSS”, the “polyreactivity (PSR sort gate)” value is “high polyreactivity”.

In the case of “QVQLVESGGGLVQGGGSLRLTCAASGSIFHYYAMGWYRQAPGKERELVAAINSSGGSRTYYADSVKGRFTISRDNAKNTVYLQMNSLKPEDTAVYYCAADYRVVWRAYDYWGQGTQVTVSS”, the “polyreactivity (PSR sort gate)” value is reported as “low polyreactivity”.

Take “QVQLVESGGGLVQAGGILRLSCAASGRNFVHYAMGWYRQAPGKERELVAAISHSGGRTYYADSVKGRFTMSRDYAQNTVYLQMNSLKPEDTAVYYCNVRGSPAGTGLLDYWGQGTQVTVSS”: the “polyreactivity (PSR sort gate)” value is recorded as “high polyreactivity”.

Take “QVQLVESGGGLVQAGRSLRLSCAASGLIFVNYAMGWYRPAPGHERELVAASTRSGGRTYYADSVKGRFTISRDNAKNRRYLHMNSLKPVDTAVYYCAAYVRSATLRVNYGYWGQGTQVTVSS”: the “polyreactivity (PSR sort gate)” value is “high polyreactivity”.

Take “QVQLVESGGGLVQAGGSLRISCAAYGTIFSDYAMGWYKQAPGKERELVAAISSGGNTNYADSVKGRFTISRDNAKNTVYLQMNSLKPEDTAVYYCAAVYNTTYTLLPEYSDVKYYYWGQGTQVTVSS”: the “polyreactivity (PSR sort gate)” value is “low polyreactivity”.

“QVQLVESGGGLVQAGGSLRLSCAASGFIFGYNAMGWYRQAPGKERELVAAISGSGGRTYYADSVKGRFTISRDNAKNTVYLQMNSLIPEDTAVYYCAVADRRGLGYWGQGTQVTVSS”: the “polyreactivity (PSR sort gate)” value is reported as “high polyreactivity”.
